From article PMC10341776

Biological target: chloroplast FOF1-ATP synthase from spinach chloroplasts (spinach (Spinacia oleracea)) (UniProt P06450)
Assay: SAXS; AEX-purified cFOF1 dialysed overnight against 30 mM HEPES, 2 mM MgCl2, 0.04% (w/v) tPCC-α-M, 450 mM NaCl; room temperature; fit with a mixture of monomers and docked dimers (OLIGOMER); monomer to dimer

What does the source list for “chloroplast FOF1-ATP synthase from spinach chloroplasts, P06450 1-507; P00825 1-498; P05435 42-364; P00833 1-134; P11402 71-257; P06451 1-247; P06453 1-184; P31853 76-222; P69447 1-81”?
fraction of dimeric cFOF1 (model with F1/F1 dimers): 68%; stoichiometry N: 2
